# The supplement of paper PMC7877785
# ± gives the uncertainty stated by the source.
# Assay: self-splicing fitness, log relative to wild type (ln ratio); higher = more splicing; Tetrahymena group I intron in knt gene, E. coli kanamycin selection, DiMSum; sequences stand for … in CUCUCU…GGAGGGAAAAGUUAUCAGGCAUGCACCUGGUAGCUAGUCUUUAAACCAAUAGAUUGCAUCGGUUUAAAAGGCAAGACCGUCAAAUUGCGGGAAAGGGGUCAACAGCCGUUCAGUACCAAGUCUCAGGGGAAACUUUGAGAUGGCCUUGCAAAGGGUAUGGUAAUAAGCUGACGGACAUGGUCCUAACCACGCAGCCAAGUCCUAAGUCAACAGAUCUUCUGUUGAUAUGGAUGCAGUUCACAGACUAAAUGUCGGUCGGGGAAGAUGUAUUCUUCUCAUAAGAUAUAGUCGGACCUCUCCUUAAUGGGAGCUAGCGGAUGAAGUGAUGCAACACUGGAGCCGCUGGGAACUAAUUUGUAUGCGAAAGUAUAUUGAUUAGUUUUGGAGUACUCGUGGUCG
# Method in brief: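 A randomised library covering all eight P1ex-region intron nucleotides was built with the intron in the knt kanamycin-resistance gene on pET-22b(+) and held in E. coli BL21(DE3). Cells were grown overnight at 37°C or 30°C on LB agar, with or without 25 μg/mL kanamycin, plus 100 μg/mL carbenicillin, 50 μM IPTG and 0.2% rhamnose, and pooled colonies were amplicon-sequenced on an Illumina HiSeq 2500. DiMSum fitness is the error-weighted combination of wild-type-normalised replicate fold changes, kanamycin versus none.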
Sequence,self-splicing fitness (ln) (30 °C),self-splicing fitness (ln) (37 °C)
CUAGAGCAAUAUUACGAAUU,-3.78 ± 0.28,-1.95 ± 0.29
CAGUAGCAAUAUUACGAGGA,-3.13 ± 0.24,-1.77 ± 0.2
GUCUAGCAAUAUUACGGCAA,-1.61 ± 0.25,0.441 ± 0.17
UGAGAGCAAUAUUACGUGCC,–,-2.99 ± 0.43
UCUUAGCAAUAUUACGCGAG,-2.25 ± 0.17,-2.92 ± 0.28
ACACAGCAAUAUUACGUUCU,-0.986 ± 0.06,-0.532 ± 0.068
ACUCAGCAAUAUUACGGUGA,-2.73 ± 0.12,-1.23 ± 0.095
UCGUAGCAAUAUUACGGGCA,-0.422 ± 0.14,-0.0787 ± 0.13
UGUUAGCAAUAUUACGAACU,-0.445 ± 0.15,0.216 ± 0.18
CCGUAGCAAUAUUACGUCGC,-3.45 ± 0.41,-1.77 ± 0.26
AUAUAGCAAUAUUACGCGGU,-2.75 ± 0.18,-2.28 ± 0.19
UAGUAGCAAUAUUACGAGGC,-3.45 ± 0.32,–
CCCCAGCAAUAUUACGUAAC,-5 ± 0.27,-2.67 ± 0.18
CGCAAGCAAUAUUACGUCAC,-3.45 ± 0.21,-2.12 ± 0.23
UUUGAGCAAUAUUACGUAAG,-1.29 ± 0.056,-0.487 ± 0.078
CCGUAGCAAUAUUACGGGUG,-3.59 ± 0.21,-2.11 ± 0.16
UCCUAGCAAUAUUACGCAGU,-3.03 ± 0.15,-2.54 ± 0.2
AGCUAGCAAUAUUACGUAUU,-3.8 ± 0.23,-1.35 ± 0.15
CGAGAGCAAUAUUACGUGGC,-4.31 ± 0.46,-2.55 ± 0.26
GGUUAGCAAUAUUACGCAUA,-0.622 ± 0.12,-0.182 ± 0.14
UGCGAGCAAUAUUACGCAAG,-2.27 ± 0.27,–
UGCCAGCAAUAUUACGGCUU,-0.887 ± 0.098,-0.247 ± 0.11
CAUUAGCAAUAUUACGCGAA,-2.65 ± 0.19,-1.17 ± 0.19
UAAUAGCAAUAUUACGAGGU,-3.06 ± 0.2,-2.65 ± 0.26
CUCCAGCAAUAUUACGAAUA,-3.91 ± 0.47,-2.54 ± 0.28

Sequence,self-splicing fitness (ln) (30 °C),self-splicing fitness (ln) (37 °C)
GUAAAGCAAUAUUACGAGUA,-1.11 ± 0.12,-0.624 ± 0.14
GUGAAGCAAUAUUACGUCUA,0.147 ± 0.049,0.251 ± 0.066
UAACAGCAAUAUUACGGUAA,-2.07 ± 0.095,-1.22 ± 0.081
GGUCAGCAAUAUUACGUCAC,–,-1.77 ± 0.39
CCGAAGCAAUAUUACGUUUG,-4.44 ± 0.22,-0.979 ± 0.1
GCAAAGCAAUAUUACGUGAA,-0.989 ± 0.099,-0.0746 ± 0.12
CCAUAGCAAUAUUACGUGCG,-2.49 ± 0.15,-0.772 ± 0.15
GGAGAGCAAUAUUACGAAAA,–,-0.772 ± 0.31
GGUAAGCAAUAUUACGGCAG,-3.62 ± 0.43,-2.49 ± 0.45
GUCUAGCAAUAUUACGGGGU,-3.56 ± 0.19,-2.04 ± 0.13
AGGCAGCAAUAUUACGAUAC,-2.06 ± 0.27,-1.42 ± 0.26
AUAAAGCAAUAUUACGUGUG,-1.55 ± 0.061,-0.947 ± 0.073
UAAGAGCAAUAUUACGAACG,–,-2.57 ± 0.41
UAAUAGCAAUAUUACGGGUC,-3.33 ± 0.3,-1.58 ± 0.28
UCCAAGCAAUAUUACGACCU,-2.9 ± 0.26,-1.95 ± 0.26
UACUAGCAAUAUUACGAUUU,-2.36 ± 0.12,-0.92 ± 0.15
UCGGAGCAAUAUUACGUACC,-2.84 ± 0.48,–
UCAUAGCAAUAUUACGUACA,-2.15 ± 0.14,-1.46 ± 0.12
AGAUAGCAAUAUUACGGCCG,-0.583 ± 0.13,-0.128 ± 0.23
AUUGAGCAAUAUUACGGGUC,-3.34 ± 0.39,–
UGCAAGCAAUAUUACGAUCU,-0.477 ± 0.091,-0.822 ± 0.1
ACUGAGCAAUAUUACGCACG,-2.17 ± 0.15,-1.11 ± 0.17
AUGGAGCAAUAUUACGUUAG,-3.17 ± 0.32,-2.49 ± 0.29
UCCCAGCAAUAUUACGCGUC,-3.15 ± 0.19,-1.47 ± 0.18
CCGGAGCAAUAUUACGAUUU,-2.51 ± 0.36,-2.26 ± 0.3

Sequence,self-splicing fitness (ln) (30 °C),self-splicing fitness (ln) (37 °C)
ACCAAGCAAUAUUACGAGUU,-4.23 ± 0.23,-1.99 ± 0.17
AACAAGCAAUAUUACGGUUG,-2.83 ± 0.1,-1.64 ± 0.084
GAAUAGCAAUAUUACGUGCA,-0.851 ± 0.083,-0.317 ± 0.11
CCAAAGCAAUAUUACGUCAU,-3.8 ± 0.2,-2.87 ± 0.22
UUAGAGCAAUAUUACGGUAG,-1.27 ± 0.12,-0.297 ± 0.14
CGGGAGCAAUAUUACGGUCU,-2.67 ± 0.29,-0.781 ± 0.45
CCUCAGCAAUAUUACGUCGU,-3.24 ± 0.15,-2.82 ± 0.24
AACUAGCAAUAUUACGUUCU,-1.55 ± 0.061,-1.14 ± 0.079
AAGCAGCAAUAUUACGUACG,-2.18 ± 0.12,-0.645 ± 0.13
ACGUAGCAAUAUUACGUGAC,-2.84 ± 0.14,-2.94 ± 0.22
UGGAAGCAAUAUUACGGCUG,-0.475 ± 0.099,1.02 ± 0.12
GGAAAGCAAUAUUACGGCUU,-1.08 ± 0.091,-0.393 ± 0.14
UCCUAGCAAUAUUACGGGGA,-2.59 ± 0.24,-1.59 ± 0.21
CCCUAGCAAUAUUACGAUUU,-3.35 ± 0.17,-1.91 ± 0.17
UCCUAGCAAUAUUACGUGAU,-3.3 ± 0.28,-1.9 ± 0.24
CUACAGCAAUAUUACGGGCU,-4.53 ± 0.29,-2.97 ± 0.29
GAGCAGCAAUAUUACGCCGG,-4.11 ± 0.39,-1.82 ± 0.3
GUUGAGCAAUAUUACGGGAU,-3.14 ± 0.15,-1.96 ± 0.15
UCUCAGCAAUAUUACGUAGC,-1.31 ± 0.17,-1.16 ± 0.23
UCGUAGCAAUAUUACGUCCG,-0.957 ± 0.074,-0.517 ± 0.091
GGGCAGCAAUAUUACGCUCA,-1.09 ± 0.094,-0.272 ± 0.16
AGUGAGCAAUAUUACGAUAA,-4.08 ± 0.33,-2.16 ± 0.25
GACCAGCAAUAUUACGAAUC,-0.584 ± 0.096,-0.196 ± 0.1
AAGAAGCAAUAUUACGAACG,-0.96 ± 0.11,-0.286 ± 0.14
AUAAAGCAAUAUUACGUGAU,-1.64 ± 0.074,-0.793 ± 0.11

Sequence,self-splicing fitness (ln) (30 °C),self-splicing fitness (ln) (37 °C)
GGCGAGCAAUAUUACGGGAA,-2.55 ± 0.3,-1.74 ± 0.43
CGGCAGCAAUAUUACGUACA,-1.26 ± 0.11,-0.624 ± 0.14
AGUAAGCAAUAUUACGUGUU,-3.49 ± 0.13,-1.99 ± 0.18
GAGAAGCAAUAUUACGACGC,-0.75 ± 0.15,-0.292 ± 0.17
CCUUAGCAAUAUUACGCGUA,-3.27 ± 0.38,-2.54 ± 0.36
CUCGAGCAAUAUUACGUUAA,-3.68 ± 0.2,-2.53 ± 0.17
GGUCAGCAAUAUUACGAGUG,-2.56 ± 0.1,-1.44 ± 0.11
UCCGAGCAAUAUUACGGGUC,–,-2.45 ± 0.26
UCCAAGCAAUAUUACGCACA,-0.502 ± 0.092,-0.309 ± 0.099
CACUAGCAAUAUUACGUUAG,-3.34 ± 0.14,-2.92 ± 0.17
CGCGAGCAAUAUUACGAAGA,–,-0.985 ± 0.39
GACCAGCAAUAUUACGUGCA,-0.378 ± 0.07,-0.122 ± 0.086
UUACAGCAAUAUUACGCCAC,–,-2.7 ± 0.43
AAGAAGCAAUAUUACGGGUA,-2.35 ± 0.16,-0.422 ± 0.12
AUUGAGCAAUAUUACGCGGG,-3.34 ± 0.36,-2.25 ± 0.35
CCUUAGCAAUAUUACGGUCA,–,-3.63 ± 0.37
ACGAAGCAAUAUUACGUAUG,-1.94 ± 0.14,-2.7 ± 0.23
CGUUAGCAAUAUUACGCACA,-1.33 ± 0.17,-0.0289 ± 0.28
GCGGAGCAAUAUUACGAGCU,-2.02 ± 0.27,0.307 ± 0.24
UAGAAGCAAUAUUACGUACU,-1.22 ± 0.1,-0.355 ± 0.14
UGGAAGCAAUAUUACGCGUC,-0.409 ± 0.2,-1.89 ± 0.27
AGAAAGCAAUAUUACGUUCA,-0.142 ± 0.084,0.14 ± 0.12
GCGGAGCAAUAUUACGGCAA,–,-1.74 ± 0.18
UUUAAGCAAUAUUACGUACU,-1.14 ± 0.12,-0.327 ± 0.14
